In PMC10292028:

B1: 6DMATSmo (Micromonospora olivasterospora) (protein)
chain: MAGLSVSDHLDGQLARLCEVAGADPVEPRNLLAGLLGPVGPRPLYEPPAWPSGVSDDHTPVEFSIAFNEAEPPTLRILGETLGSPPGPLANLSATRGFLDAQARRAGLSTSRLDSVRDLFATDDPQGDFAMWCSLVFRSSRRPEFKVYLNPEVKGVERSPALVSEALHRLGLGASYRALLDHGVRPGELGRGDRLTFFAVDLHDGPQARVKLYLTHHEAEVWDVTRAASVVDGVDVAEIEEFCVVAGGGTRRFDGRPLVGSYTFTEGADRPVGYSIYVPIRSYVTDDQEARDRVAALLVRYGFDTDGLDRAIAAVTPRPLRDGVGLIAHVSLRLGAPRPGVTVYLSAEAYRVSPPRPRRMPAGRDVSPAPVGRTRP
B2: 6DMATSmo (Micromonospora olivasterospora; Y277H) (protein)
chain: MAGLSVSDHLDGQLARLCEVAGADPVEPRNLLAGLLGPVGPRPLYEPPAWPSGVSDDHTPVEFSIAFNEAEPPTLRILGETLGSPPGPLANLSATRGFLDAQARRAGLSTSRLDSVRDLFATDDPQGDFAMWCSLVFRSSRRPEFKVYLNPEVKGVERSPALVSEALHRLGLGASYRALLDHGVRPGELGRGDRLTFFAVDLHDGPQARVKLYLTHHEAEVWDVTRAASVVDGVDVAEIEEFCVVAGGGTRRFDGRPLVGSYTFTEGADRPVGYSIHVPIRSYVTDDQEARDRVAALLVRYGFDTDGLDRAIAAVTPRPLRDGVGLIAHVSLRLGAPRPGVTVYLSAEAYRVSPPRPRRMPAGRDVSPAPVGRTRP
B3: 6DMATSmo (Micromonospora olivasterospora; H329Y) (protein)
chain: MAGLSVSDHLDGQLARLCEVAGADPVEPRNLLAGLLGPVGPRPLYEPPAWPSGVSDDHTPVEFSIAFNEAEPPTLRILGETLGSPPGPLANLSATRGFLDAQARRAGLSTSRLDSVRDLFATDDPQGDFAMWCSLVFRSSRRPEFKVYLNPEVKGVERSPALVSEALHRLGLGASYRALLDHGVRPGELGRGDRLTFFAVDLHDGPQARVKLYLTHHEAEVWDVTRAASVVDGVDVAEIEEFCVVAGGGTRRFDGRPLVGSYTFTEGADRPVGYSIYVPIRSYVTDDQEARDRVAALLVRYGFDTDGLDRAIAAVTPRPLRDGVGLIAYVSLRLGAPRPGVTVYLSAEAYRVSPPRPRRMPAGRDVSPAPVGRTRP
B4: 6DMATSmo (Micromonospora olivasterospora; H329Y/Y277H) (protein)
chain: MAGLSVSDHLDGQLARLCEVAGADPVEPRNLLAGLLGPVGPRPLYEPPAWPSGVSDDHTPVEFSIAFNEAEPPTLRILGETLGSPPGPLANLSATRGFLDAQARRAGLSTSRLDSVRDLFATDDPQGDFAMWCSLVFRSSRRPEFKVYLNPEVKGVERSPALVSEALHRLGLGASYRALLDHGVRPGELGRGDRLTFFAVDLHDGPQARVKLYLTHHEAEVWDVTRAASVVDGVDVAEIEEFCVVAGGGTRRFDGRPLVGSYTFTEGADRPVGYSIHVPIRSYVTDDQEARDRVAALLVRYGFDTDGLDRAIAAVTPRPLRDGVGLIAYVSLRLGAPRPGVTVYLSAEAYRVSPPRPRRMPAGRDVSPAPVGRTRP
B5: PriB (Streptomyces sp. RM-5-8) (protein)
chain: MGGPMSGFHSGEALLGDLATGQLTRLCEVAGLTEADTAAYTGVLIESLGTSAGRPLSLPPPSRTFLSDDHTPVEFSLAFLPGRAPHLRVLVEPGCSSGDDLAENGRAGLRAVHTMADRWGFSTEQLDRLEDLFFPSSPEGPLALWCALELRSGGVPGVKVYLNPAANGADRAAETVREALARLGHLQAFDALPRADGFPFLALDLGDWDAPRVKIYLKHLGMSAADAGSLPRMSPAPSREQLEEFFRTAGDLPAPGDPGPTEDTGRLAGRPALTCHSFTETATGRPSGYTLHVPVRDYVRHDGEARDRAVAVLREHDMDSAALDRALAAVSPRPLSDGVGLIAYLALVHQRGRPTRVTVYVSSEAYEVRPPRETVPTRDRARARL

Legend:
[1] = substrate: N[C@@H](Cc1c[nH]c2ccccc12)C(=O)O; test: HPLC end-point assay, Michaelis-Menten fit; type: biochemical, Micromonospora olivasterospora; settings: 2 mM DMAPP, 50 mM Tris pH 8.0, 37 °C
[2] = substrate: N[C@@H](Cc1c[nH]c2ccccc12)C(=O)O; test: HPLC end-point assay, Michaelis-Menten fit; type: biochemical, Streptomyces sp. RM-5-8; settings: 2 mM DMAPP, 50 mM Tris pH 8.0, 37 °C

Protein	Km [1]	kcat [1] [s⁻¹]	kcat/Km [1] [M⁻¹ s⁻¹]	Km [2]	kcat [2] [s⁻¹]	kcat/Km [2] [M⁻¹ s⁻¹]
B1	(33.1 ± 2.5) × 10^−2 mM	0.0917 ± 0.00167	277	–	–	–
B2	(38.2 ± 0.1) × 10^−2 mM	0.00108 ± 3.33e-05	2.83	–	–	–
B3	(26.7 ± 1.6) × 10^−2 mM	0.000783 ± 1.17e-05	2.93	–	–	–
B4	1000 ± 100 µM	0.00182 ± 3.33e-05	1.82	–	–	–
B5	–	–	–	(42.9 ± 6.9) × 10^−2 mM	0.33 ± 0.0133	770
